Results as given in the domain aggregation screens of Martell et al. (2025).

experiment: soluble fraction after stress (log2 fold change); higher = more stays soluble; pooled small domains, quantitative proteomics; conditions: stress: 50 degC
Method in brief: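 After stress at 50°C, the amount of each protein still soluble was measured. This was done on pooled custom libraries of small protein domains, using high-throughput quantitative proteomics. The figure given is a base-two log fold change and stands for aggregation propensity, with higher values meaning more protein stays in solution.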

Sequence	soluble fraction (log2)
HMQQNDMTELRALAEKIISENDSVINDYKSGQGSALQFLIGQAMKETKGSANPQVISEIFTDLL	-0.225
HMNLPISDREKELLTLLSKGLLYKEIASKLDITIGTVKQHIHNIYHKLHVSNKTEALNLFNK	-0.685
HMRGGLATLTPRERQVLALMAEGRSNAGIAAELVVSGGAVEKHVASIFTKLGLPPDESDNRRVLAVLRHLG	-0.661
HMTLNQEELMGKTEAILFAGGEPVSLDRIAQVLGVRTPVIDSIVSALQEKYNTPTSGIQLMRL	-0.143
HMDAIDQDGNHMTFKRWGEQLQEAFQALEAYDTDKAKTILNELIKFPIDSDLNNALKGILSNIDEMMA	-0.447
HMESKDIRYVQLQTVSPEEVLQALALIMPRSDVYVEPTGKLVVLHGSKETLDRAEELILALDNAV	0.0118
HMLWTHIALPVRSLDDTMAFYDKYTTLENIHERQDPETNMRSVWLANPGDKTEQAARFVLVLI	-0.116
HMGEVPVETKDGIKVHVHTVDKSQTAYGISRLYNITLNELYESNPEAKLELSIGQKLYFPVK	-0.154
HMGVGTTDERLAVLNQIASRQTEALEKLGPNNPLVGLGQIRNTLSKMLEISGYPDSNQFFKQVPLDYEPPP	0.173
HMPTEPTARELEVTTLLAQGLSNREIAGALFISEHTVRNHLGHVFSKLGVSSRTQAVVRAGQLGWLR	-2.14
HMIDNKIIRSLRQKRNMTLEELAKKANISVSYLSEIELGKKQPSLETINKLSQALNISREGLI	-0.0409
HMEQPPVPSVSITAALGSAVARRLAPHGFQKMPDLVDAYRAGKLAQISGIGGTTLDLIREWLTANARQQ	0.0154
HMSTLTLTSGTYAVGENIKAGKYTIMGSGSIAISSSGKARVNSNLTADRKDYVLNDDETIKIKGKAQFIPI	0.11
HMDAKIEYTMSDLIENRLINSDDASMRREKLSEILKIGYGNGKKTLHKLNSFGITREEFEEAMKEVNSH	0.0697
HMAIGTDPETGISVVADGTDFIWTRSGATSTIFLRLDSENSYILNVKQGDFEVIDYELGEGQENAINIDQS	-0.0311
HMLEIQENFQNILKRMELSLSPLERRVLALYLSGYERSEIPEKTGIPLKTFDNALHRVRNKMK	-1.53
HMVLSTRERMSNILATLKGGHFVNFSDLFTPEEGRLGVVVTFLAMLELIKESLLDIVQHEVLGPIHVKARV	-0.0744
HMIKEYEVLNYVTYEYDEIKKKLEEDFGIIVLMKEAYSDETPAGIIMDQDVEQGRIFKEGATNTITFTVS	-0.434
HMIEMGNRIRTLRKRRVGSQSEFAEKLDVSVVTISRIENGMTKIDAELLIKMSEVLQVPVNIILGM	-3.22

Sequence	soluble fraction (log2)
HMQPLRQGDFVTSEVVKVQDGTAVLRTAQGTLLSASLTGNLGLLPGDRVETVVVEASPGRFVLRVLDIIR	-0.15
HMQFAEIPNFSEMALQILRLQADGLSITKIAEALHMNPRTVKYHAQENYRKLQASNKSEALLAARNLNL	-1.3
HMDVQTVTVIENVNVRKSASENGQKLGLAYTGEKLELLMKQADGWTRVKYNGETAYVKSDYV	-0.00354
HMVDKSYIHNQQVASDTWTVQHNLGKYPAVSVADTGNNEVYGDVRHINENTVELKFSHPFSGVAFF	0.281
HMDEWDDGDKPKLKITLYADDDYYFASGFSKSSVSLSGSDGTVTSVSRSSSDTLIVYVTLDALD	-0.0264
HMAVVEVATTTATEYKVEKGHHFKVGDFVMFKTGAKSYAITAIDTTSPIFDKITVGTTLGEAIPVGGTLM	-1.38
HMLVGKSVIMKTNESSSGMIAGKVNYWENIDGKIYLGINGKLYDIADVDTVLDNDYYDKLVN	-0.347
HMAIRPDAAVSSHAVKQRLQSLIRAEDPAAPLSDEALRLALSALGIGVSRRAVAKYRAEMGIPSSSQRKK	-0.0632
HMKPRISMITLGVKDLNKSIEFYGGGLGFPRKKTEPEIAIFKLNGSWLSLYNRGLLAEDANVS	-0.0946
HMVENATPEEREALNDIAMEAMGMVKDGKPTSAREFVQSQNLDNDQKILLWSLLDAPTRSALKTAEK	-0.133
HMTNVETLVRMRLRSIRTTLGYSLDEIAERSNLSASTVSRIETGKRALSIDVLVPLAAALQVSVDDLLRAE	-2.43
HMEPVQPVMYSEFIESVERGEVVEATIQGDKIIATDRSGNRYTVVGSAKDPQLVGQLLERNVAFKFVEE	0.00245
HMITGREMDVLEALWSSEKPLVASDIPKMKPSLSISSVQLALRNLVKKKLVEVADIVYSGTVLSRSYRP	0.0545
HMSTPAKVTPTNPIVKQLFNAAETQIKNKDIQNAIASYEKADTLTTDEKVKQYIHYQLSTLKDDN	-0.14
HMKLRLGVNIDPVATVRNARGSAYPDPVRAAIIAQEAGADGITAHLREDRRHIVDQDITSIIKAIDIPLNF	-0.0391
HMQLGSILAYKFPQFGGIDGAWQVRDDSNGTGPYIAFWDAKTIGRGMPTEDELTAWAQEYEA	-0.153
HMNNLPDFIKQLRKENNLTQEYVASEIGVSRPTYEQIEKGKRELTISEAEKLAKIFNIPLENFLQGKKGV	0.184
HMDTINEYERNILSLITSKPGISAVQIAADTDKSIITAKRGIKTLVDGKLIEYRGSKKTGGYFLLTQS	-0.371
HMNMMIIHVNGEKYSFQEPITISELILKLELDSRKIAIEYNLEILPRSLFEITSIKNGDKIEIVHFI	-2.37
